Experimental data: IntAct's records for PubMed 17318191

B1: Catenin beta-1 (Homo sapiens), P35222 (parent)
chain: MATQADLMELDMAMEPDRKAAVSHWQQQSYLDSGIHSGATTTAPSLSGKGNPEEEDVDTSQVLYEWEQGFSQSFTQEQVADIDGQYAMTRAQRVRAAMFPETLDEGMQIPSTQFDAAHPTNVQRLAEPSQMLKHAVVNLINYQDDAELATRAIPELTKLLNDEDQVVVNKAAVMVHQLSKKEASRHAIMRSPQMVSAIVRTMQNTNDVETARCTAGTLHNLSHHREGLLAIFKSGGIPALVKMLGSPVDSVLFYAITTLHNLLLHQEGAKMAVRLAGGLQKMVALLNKTNVKFLAITTDCLQILAYGNQESKLIILASGGPQALVNIMRTYTYEKLLWTTSRVLKVLSVCSSNKPAIVEAGGMQALGLHLTDPSQRLVQNCLWTLRNLSDAATKQEGMEGLLGTLVQLLGSDDINVVTCAAGILSNLTCNNYKNKMMVCQVGGIEALVRTVLRAGDREDITEPAICALRHLTSRHQEAEMAQNAVRLHYGLPVVVKLLHPPSHWPLIKATVGLIRNLALCPANHAPLREQGAIPRLVQLLVRAHQDTQRRTSMGGTQQQFVEGVRMEEIVEGCTGALHILARDVHNRIVIRGLNTIPLFVQLLYSPIENIQRVAAGVLCELAQDKEAAEAIEAEGATAPLTELLHSRNEGVATYAAAVLFRMSEDKPQDYKKRLSVELTSSLFRTEPMAWNETADLGLDIGAQGEPLGYRQDDPSYRSFHSGGYGQDALGMDPMMEHEMGGHHPGADYPVDGLPDLGHAQDLMDGLPPGDSNQLAWFDTDL

Variants of: B1
Settings: with axin1_human AXIN1, O15169
axin1_human AXIN1, O15169, sequence (O15169 whole entry): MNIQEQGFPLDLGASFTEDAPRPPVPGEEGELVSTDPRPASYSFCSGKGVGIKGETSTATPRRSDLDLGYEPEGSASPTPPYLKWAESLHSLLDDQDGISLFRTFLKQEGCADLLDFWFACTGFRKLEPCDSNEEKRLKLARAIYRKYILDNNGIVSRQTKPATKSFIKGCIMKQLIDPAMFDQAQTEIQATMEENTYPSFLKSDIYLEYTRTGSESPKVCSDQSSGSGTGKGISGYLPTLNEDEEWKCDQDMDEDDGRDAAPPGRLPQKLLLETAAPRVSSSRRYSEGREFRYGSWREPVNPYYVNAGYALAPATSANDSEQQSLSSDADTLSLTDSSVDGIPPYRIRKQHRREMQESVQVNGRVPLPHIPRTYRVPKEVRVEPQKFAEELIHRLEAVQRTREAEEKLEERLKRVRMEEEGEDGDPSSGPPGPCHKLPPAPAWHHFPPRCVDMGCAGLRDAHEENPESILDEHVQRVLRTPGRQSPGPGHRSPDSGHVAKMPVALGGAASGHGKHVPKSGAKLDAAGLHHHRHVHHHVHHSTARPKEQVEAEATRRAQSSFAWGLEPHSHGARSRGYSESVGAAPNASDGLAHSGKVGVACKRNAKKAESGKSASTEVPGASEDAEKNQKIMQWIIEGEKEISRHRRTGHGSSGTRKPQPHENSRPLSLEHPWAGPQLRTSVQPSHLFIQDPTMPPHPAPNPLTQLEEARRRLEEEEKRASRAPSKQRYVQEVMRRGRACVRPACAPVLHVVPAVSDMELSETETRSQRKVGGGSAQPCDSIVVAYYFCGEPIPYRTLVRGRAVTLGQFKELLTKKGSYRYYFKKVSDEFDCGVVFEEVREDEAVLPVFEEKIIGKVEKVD

Row | Variant | effect of a mutation on the interaction
1 | Y654F | decreasing interaction
2 | Y142F | disrupting interaction
